Laboratory results: the supplement of paper PMC7125110
± gives the standard error. For part of these data: Variants at the floor of the assay were thinned out.

B1: glmS ribozyme (parent)
chain: AUAAAAGCGCCAGAACUACAGAAAUGUAGUUGACGAGGAGGAGGUUUAUCGAAUUUUCGGCGGAUGCCUCCAAA

What was measured:
Settings in all cases: with glucosamine-6-phosphate
glucosamine-6-phosphate [1] = variants of: B1; assay: kcat; higher = faster cleavage; RNA array
Outline: (§1)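 Weighted Michaelis–Menten fits across concentrations supplied kcat and KM, based on kobs from one- or two-exponential decay fits to normalised per-tile medians. The data came from barcoded ribozyme variants transcribed in situ by E. coli RNA polymerase on sequenced MiSeq chips and tracked at 37 °C by a hybridised Cy3 probe. Glucosamine-6-phosphate (40 μM to 10 mM) in HEPES/KCl/Mg(OAc)2 buffer was flowed in.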

glucosamine-6-phosphate [2] = variants of: B1; assay: KM; higher = weaker cofactor use; RNA array
Outline: as §1

glucosamine-6-phosphate [3] = variants of: B1; assay: self-cleavage kobs at 40 uM GlcN6P; higher = faster cleavage; RNA array
Outline: as §1

glucosamine-6-phosphate [4] = variants of: B1; assay: self-cleavage kobs at 640 uM GlcN6P; higher = faster cleavage; RNA array
Outline: as §1

glucosamine-6-phosphate [5] = variants of: B1; assay: self-cleavage kobs at 2500 uM GlcN6P; higher = faster cleavage; RNA array
Outline: as §1

glucosamine-6-phosphate [6] = variants of: B1; assay: self-cleavage kobs at 10000 uM GlcN6P; higher = faster cleavage; RNA array
Outline: as §1

glucosamine-6-phosphate [7] = variants of: B1; assay: self-cleavage kobs at 160 uM GlcN6P; higher = faster cleavage; RNA array
Outline: as §1

Variant | kcat (glucosamine-6-phosphate [1]) | KM (glucosamine-6-phosphate [2]) | self-cleavage kobs at 40 uM GlcN6P (glucosamine-6-phosphate [3]) | self-cleavage kobs at 640 uM GlcN6P (glucosamine-6-phosphate [4]) | self-cleavage kobs at 2500 uM GlcN6P (glucosamine-6-phosphate [5]) | self-cleavage kobs at 10000 uM GlcN6P (glucosamine-6-phosphate [6]) | self-cleavage kobs at 160 uM GlcN6P (glucosamine-6-phosphate [7])
G59U | 5.77e-05 ± 1.4e-06 s⁻¹ | 1210 ± 130 µM | < 1e-05 s⁻¹ | 1.83e-05 ± 1.7e-06 s⁻¹ | 4.03e-05 ± 1.3e-06 s⁻¹ | 5.11e-05 ± 9.9e-07 s⁻¹ | 
C61U C67A | 1.1e-05 ± 1.5e-06 s⁻¹ |  |  |  |  |  | 
A6U A39U G40A |  |  | < 1e-05 s⁻¹ |  |  |  | 
A6G U57C C70A C71U |  |  | < 1e-05 s⁻¹ |  |  |  | < 1e-05 s⁻¹
C61U G62A | < 1e-05 s⁻¹ |  |  | < 1e-05 s⁻¹ |  | < 1e-05 s⁻¹ | < 1e-05 s⁻¹
A6U A15U G63A C70U |  |  | < 1e-05 s⁻¹ |  |  |  | 
U57C C70U | 0.00016 ± 1.8e-05 s⁻¹ | 741 ± 210 µM |  | 7.23e-05 ± 9.1e-06 s⁻¹ | 0.000137 ± 1.3e-05 s⁻¹ | 0.000124 ± 2.4e-05 s⁻¹ | 2.63e-05 ± 8.9e-06 s⁻¹
A6C G29C A53U |  |  | < 1e-05 s⁻¹ |  |  |  | < 1e-05 s⁻¹
C61G C67G C70G | < 1e-05 s⁻¹ |  |  |  |  |  | 
A5U G40C |  |  | 0.000123 ± 2.6e-05 s⁻¹ |  | 0.000574 ± 0.00021 s⁻¹ |  | 
C70U C71A | 0.000245 ± 1.7e-05 s⁻¹ | 607 ± 110 µM |  | 0.00013 ± 1.4e-05 s⁻¹ | 0.00018 ± 2.3e-05 s⁻¹ | 0.000247 ± 3e-05 s⁻¹ | 5.23e-05 ± 9.7e-06 s⁻¹
C70U C71G | 0.000124 ± 1e-05 s⁻¹ | 242 ± 98 µM |  | 8.39e-05 ± 8.3e-06 s⁻¹ | 0.000118 ± 9.3e-06 s⁻¹ | 0.00012 ± 1.1e-05 s⁻¹ | 7e-05 ± 1.3e-05 s⁻¹
A6U G35U A39G C71A |  |  | < 1e-05 s⁻¹ |  |  | < 1e-05 s⁻¹ | 
U69G C70A | 4.72e-05 ± 1.5e-05 s⁻¹ |  |  | 5.13e-05 ± 9.1e-06 s⁻¹ | 7.85e-05 ± 1.2e-05 s⁻¹ |  | 4.55e-05 ± 1.3e-05 s⁻¹
A64G G66U | 0.00159 ± 7.8e-05 s⁻¹ | 1210 ± 120 µM |  | 0.000588 ± 0.00016 s⁻¹ | 0.00102 ± 0.00034 s⁻¹ | 0.00143 ± 0.0003 s⁻¹ | 0.000178 ± 5.7e-05 s⁻¹
A6G C8U U54G C68G |  |  | 0.000149 ± 5.2e-05 s⁻¹ | 0.000705 ± 0.00028 s⁻¹ |  | 7.88e-05 ± 2.2e-05 s⁻¹ | 
C61A U69G | < 1e-05 s⁻¹ |  | < 1e-05 s⁻¹ |  |  |  | 
A6G A14G G29C G38A A39G G40A A42U U54C U56A G60C |  |  | < 1e-05 s⁻¹ |  |  |  | 
A6C A14C U45G U57C |  |  | < 1e-05 s⁻¹ |  |  | < 1e-05 s⁻¹ | 
G66C C68U | 0.00021 ± 1.1e-05 s⁻¹ | 1890 ± 220 µM |  | 5.11e-05 ± 1e-05 s⁻¹ | 0.000132 ± 2.7e-05 s⁻¹ | 0.000173 ± 2.3e-05 s⁻¹ | 
G63A U69G | 6.54e-05 ± 2.8e-05 s⁻¹ |  |  | 0.000116 ± 3.3e-05 s⁻¹ | 5.94e-05 ± 2.5e-05 s⁻¹ |  | 8.37e-05 ± 2.7e-05 s⁻¹
G63A U69A | 4.23e-05 ± 1.2e-05 s⁻¹ |  |  |  |  |  | 5.41e-05 ± 2e-05 s⁻¹
